Assay results as given in PMC13281853 (The FASEB Journal, 2022).

Assays:
[1] = target: ancGR2-LBD (ligand-binding domain of the ancestral glucocorticoid receptor 2), Dex-bound; assay: SPR
SPR = target: the molecule itself; assay: SPR

- Kd [1]: 11.6 ± 1.5 µM
B1: MR-LBD (ligand-binding domain of the mineralocorticoid receptor), Dex-bound (domain or fragment)
chain: QLSTISRALTPSPVMVLENIEPEIVYAGYDSSKPDTAENLLSTLNRLAGKQMIQVVKWAKVLPGFKNLPLEDQITLIQYSWMCLSSFALSWRSYKHTNSQFLYFAPDLVFNEEKMHQSAMYELCQGMHQISLQFVRLQLTFEEYTIMKVLLLLSTIPKDGLKSQAAFEEMRTNYIKELRKMVTKCPNNSGQSWQRFYQLTKLLDSMHDLVSDLLEFCFYTFRESHALKVEFPAMLVEII
- Kd (SPR): 1.49 ± 0.41 µM
